This is an account of results in article PMC12630360.

Test [1] has as its target HLA class I heavy chains of HeLa/US6 cells (the H of HLA-Hβ in the BFA/temperature upshift decays) (human (endogenous in HeLa)). The test is described as follows: flow cytometry on cells; BFA/temperature upshift decays: cells overnight at 25 °C, 10 μg/ml brefeldin A, then 37 °C for the indicated times; surface Hβ and fH followed with conformation-specific mAbs; half-times fitted (by hand or Solver) with a first-order in silico model.

Test [2] concerns the target H-2L^d heavy chain (free heavy chain, L^d-fH, when without β2m and peptide) (mouse). The description is as above.

Chain of H-2L^d heavy chain (free heavy chain, L^d-fH, when without β2m and peptide) (mouse) (P01897 25-362): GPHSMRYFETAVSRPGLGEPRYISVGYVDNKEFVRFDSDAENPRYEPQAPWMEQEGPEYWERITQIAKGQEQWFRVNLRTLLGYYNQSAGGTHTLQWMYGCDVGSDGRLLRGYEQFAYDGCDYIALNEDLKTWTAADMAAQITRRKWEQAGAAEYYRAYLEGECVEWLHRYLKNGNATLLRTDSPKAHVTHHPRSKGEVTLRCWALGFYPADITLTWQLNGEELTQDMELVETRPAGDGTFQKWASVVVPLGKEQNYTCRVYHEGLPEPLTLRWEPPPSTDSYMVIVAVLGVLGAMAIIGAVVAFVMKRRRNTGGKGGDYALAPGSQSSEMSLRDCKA

With “beta-2 microglobulin of HeLa/US6 cells (from UniProt P61769 21-119) (natural protein)”, the half-time of β2m dissociation (r1) at 37 °C in test [1] was 10 min.
In the case of “beta-2 microglobulin of STF1 cells (from UniProt P61769 21-119) (natural protein)”, in test [2], the half-time of β2m dissociation (r1) at 37 °C is 3 min.
